Measurements published in article PMC3936753.

B1: DNA1 (ssDNA)
DNA: GTGTAGTAATCGTCCATTGTGTCT
B2: RNA1 (ssRNA)
RNA: GUGUAGUAAUCGUCCAUUGUGUCU
B3: RNA10 (ssRNA)
RNA: GUGUAGUAAUCGUCCAUUGUGUCU
B4: RNA1/RNA2 (dsRNA)
RNA 1: GUGUAGUAAUCGUCCAUUGUGUCU
RNA 2: AGACACAAUGGACGAUUACUACAC

Assays:
MBP-VP5 [1] = target: T1, MBP-VP5 (Helicoverpa armigera cypovirus 5 …, UniProt Q3LTV8 1-380); test: EMSA; 10 pmol protein, 0.1 pmol probe; 25 mM HEPES-KOH pH 7.5, 100 mM NaCl, 10 ul, 30 min at room temperature; 2% agarose gel
MBP-VP5 [2] = target: T1, MBP-VP5; test: EMSA; 10 pmol protein, 0.1 pmol probe; Hill coefficient ~1.499 (0.05-0.16 uM) and ~4.972 (0.2-0.48 uM); 25 mM HEPES-KOH pH 7.5, 100 mM NaCl, 10 ul, 30 min at room temperature; 2% agarose gel
MBP-VP5 [3] = target: T1, MBP-VP5; test: competition; vs HEX-RNA1, 5-100 fold excess, 2 pmol protein; 25 mM HEPES-KOH pH 7.5, 100 mM NaCl, 10 ul, 30 min at room temperature; 2% agarose gel

Binder	binding result (MBP-VP5 [1])	further results
B1	binds	–
B2	–	binding result (MBP-VP5 [2]): binds
B3	–	binding result (MBP-VP5 [3]): binds
B4	binds	–
